Where two headings read alike, the source gives them in different places.
Assays:
[1] = target: T1, human CD73 on cells (human, UniProt P21589 27-549); test: cell-based or functional assay
T1 sequence (looked up): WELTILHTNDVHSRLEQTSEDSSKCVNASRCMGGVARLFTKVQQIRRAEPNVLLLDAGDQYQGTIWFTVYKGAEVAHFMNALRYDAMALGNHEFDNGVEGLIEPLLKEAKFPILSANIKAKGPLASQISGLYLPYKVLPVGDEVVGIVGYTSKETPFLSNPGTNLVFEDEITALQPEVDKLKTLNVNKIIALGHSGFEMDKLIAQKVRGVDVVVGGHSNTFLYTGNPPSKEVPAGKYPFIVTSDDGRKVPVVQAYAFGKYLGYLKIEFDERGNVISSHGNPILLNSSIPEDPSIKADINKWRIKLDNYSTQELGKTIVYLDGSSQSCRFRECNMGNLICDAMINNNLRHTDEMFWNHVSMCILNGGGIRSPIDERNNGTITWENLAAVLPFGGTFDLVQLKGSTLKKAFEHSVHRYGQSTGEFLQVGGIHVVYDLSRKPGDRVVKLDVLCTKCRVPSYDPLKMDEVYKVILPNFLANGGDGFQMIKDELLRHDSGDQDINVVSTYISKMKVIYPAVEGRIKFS

[2] = target: T2, recombinant human CD73 protein fused with a 6×His-tag (R&D Systems, 5795EN) (human, UniProt P21589 27-547); test: cell-based or functional assay
T2 sequence: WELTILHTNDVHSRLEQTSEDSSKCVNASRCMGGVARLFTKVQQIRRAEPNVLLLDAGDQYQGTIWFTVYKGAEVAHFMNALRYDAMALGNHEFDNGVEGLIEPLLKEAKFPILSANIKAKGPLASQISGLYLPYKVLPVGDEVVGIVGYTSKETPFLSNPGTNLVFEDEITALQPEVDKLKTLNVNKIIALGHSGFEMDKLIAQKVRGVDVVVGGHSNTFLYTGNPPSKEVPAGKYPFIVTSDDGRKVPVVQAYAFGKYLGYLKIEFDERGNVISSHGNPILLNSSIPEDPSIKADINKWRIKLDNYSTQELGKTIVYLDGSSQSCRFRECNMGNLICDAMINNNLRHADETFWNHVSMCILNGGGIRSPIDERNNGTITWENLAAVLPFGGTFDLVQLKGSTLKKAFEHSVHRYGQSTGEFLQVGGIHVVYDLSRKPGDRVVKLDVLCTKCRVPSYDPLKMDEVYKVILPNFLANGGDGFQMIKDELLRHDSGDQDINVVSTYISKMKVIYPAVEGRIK

[3] = target: T1, human CD73 on cells; test: flow cytometry on CHO cells expressing human CD73; area under MFI curve
Protocol: (§1) Briefly, Chinese hamster ovarian (CHO) cells were transduced with lentiviral vectors comprising a mouse, cynomolgus, or human CD73 coding sequence under the control of a CMV promoter, and stable CHO-CD73 cells were generated by antibiotic selection. Expression of CD73 was verified by flow cytometry using positive control antibodies. The stable CHO-CD73 cells were grown in suspension culture in RPMI media supplemented with 10% heat-inactivated FBS at 37° C. and 5% CO₂. […] The cells were then washed twice and analyzed using the LSRFortessa™ flow cytometer (BD Biosciences). FACS data were analyzed using FACS DIVA and WEHI Weasel software, and were plotted with Graphpad Prism software.
(§2) The affinities of the humanized anti-CD73 antibodies to membrane-associated CD73 were determined. Specifically, CHO cells ectopically expressing full-length human or cynomolgus CD73 were generated, and the binding of the antibodies to the cells were examined, using the method as described in Example 6.1.3.

[4] = target: T3, recombinant mouse CD73 protein fused with a 6×His-tag (R&D Systems, 4488EN) (mouse, UniProt Q61503 29-549, limits assumed); test: SPR; antibody on Protein A chip, CD73-His as analyte
T3 sequence (looked up): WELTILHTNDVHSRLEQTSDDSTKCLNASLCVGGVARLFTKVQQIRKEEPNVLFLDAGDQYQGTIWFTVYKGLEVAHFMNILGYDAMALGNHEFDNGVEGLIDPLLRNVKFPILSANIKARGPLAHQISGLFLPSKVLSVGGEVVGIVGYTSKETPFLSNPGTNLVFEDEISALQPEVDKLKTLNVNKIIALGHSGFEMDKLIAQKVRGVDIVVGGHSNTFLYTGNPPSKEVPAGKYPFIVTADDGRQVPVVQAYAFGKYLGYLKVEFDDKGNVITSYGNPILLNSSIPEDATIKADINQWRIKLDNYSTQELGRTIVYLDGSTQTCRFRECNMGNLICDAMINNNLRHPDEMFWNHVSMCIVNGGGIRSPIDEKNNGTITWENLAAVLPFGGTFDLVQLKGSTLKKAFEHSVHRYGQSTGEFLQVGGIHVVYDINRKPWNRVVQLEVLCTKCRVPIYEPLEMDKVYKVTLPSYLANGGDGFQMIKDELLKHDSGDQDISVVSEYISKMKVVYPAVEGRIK
Protocol: (§3) The sensor chip was regenerated between cycles with a 30-sec injection of 10 mM glycine, pH 1.5. Sensograms were evaluated and fit to a simple Langmuir 1:1 interaction model using the global data analysis option of BiaEvaluation 3.1 software. Data quality was verified by visually inspecting deviations and curve fitting, and by evaluating the parameters of Rmax, Chi2, and Tc.

[5] = target: T2, recombinant human CD73 protein fused …; test: as above
Protocol: as §3

[6] = target: T4, recombinant cynomolgus CD73 protein fused with a 6×His-tag (Sino Biological, 90192-C08H) (cynomolgus, UniProt A0A2K5V5U7 27-547); test: as above
T4 sequence: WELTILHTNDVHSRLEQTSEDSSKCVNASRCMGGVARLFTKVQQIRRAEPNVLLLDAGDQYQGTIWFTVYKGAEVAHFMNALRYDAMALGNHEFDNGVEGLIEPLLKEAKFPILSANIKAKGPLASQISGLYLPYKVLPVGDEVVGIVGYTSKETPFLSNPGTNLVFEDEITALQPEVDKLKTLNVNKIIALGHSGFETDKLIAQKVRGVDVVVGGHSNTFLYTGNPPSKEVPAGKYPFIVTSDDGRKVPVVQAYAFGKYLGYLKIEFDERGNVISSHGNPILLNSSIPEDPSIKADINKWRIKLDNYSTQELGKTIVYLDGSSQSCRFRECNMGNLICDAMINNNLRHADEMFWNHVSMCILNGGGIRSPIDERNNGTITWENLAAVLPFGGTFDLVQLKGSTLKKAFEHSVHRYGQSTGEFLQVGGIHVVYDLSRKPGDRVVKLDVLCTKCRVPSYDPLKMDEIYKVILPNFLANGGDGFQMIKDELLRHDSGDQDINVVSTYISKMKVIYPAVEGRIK
Protocol: as §3

[7] = target: T1, human CD73 on cells; test: flow cytometry, CHO cells expressing human CD73, MFI vs antibody concentration
[8] = target: T5, cynomolgus CD73 on cells (cynomolgus, UniProt A0A2K5V5U7 27-549); test: flow cytometry, CHO cells expressing cynomolgus CD73, MFI vs antibody concentration
T5 construct: whole, on cells; also called full-length cynomolgus CD73 on CHO cells; CD73 on cynomolgus monkey CD8+ T cells
T5 sequence: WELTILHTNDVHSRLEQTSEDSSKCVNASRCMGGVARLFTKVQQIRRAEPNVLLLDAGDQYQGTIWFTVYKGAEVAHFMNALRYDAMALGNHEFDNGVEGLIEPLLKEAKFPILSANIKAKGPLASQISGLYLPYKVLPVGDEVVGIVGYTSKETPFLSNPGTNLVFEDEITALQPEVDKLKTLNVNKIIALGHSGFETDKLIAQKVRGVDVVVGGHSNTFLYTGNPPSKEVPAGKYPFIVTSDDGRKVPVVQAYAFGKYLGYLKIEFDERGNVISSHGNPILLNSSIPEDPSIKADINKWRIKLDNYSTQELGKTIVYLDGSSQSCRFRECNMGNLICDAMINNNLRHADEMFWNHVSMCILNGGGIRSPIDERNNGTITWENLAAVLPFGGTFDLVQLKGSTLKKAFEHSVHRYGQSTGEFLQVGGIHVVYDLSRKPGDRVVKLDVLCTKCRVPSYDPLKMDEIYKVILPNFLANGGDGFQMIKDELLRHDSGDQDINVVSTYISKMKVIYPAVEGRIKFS

[9] = target: T6, mouse CD73 on cells (mouse, UniProt Q61503 29-551); test: flow cytometry, CHO cells expressing mouse CD73 (panel CHO-muCD73), MFI vs antibody concentration
T6 construct: whole, on cells; also called full-length mouse CD73 on CHO cells (CHO-muCD73); CD73 on mouse CD8+ T cells
T6 sequence (looked up): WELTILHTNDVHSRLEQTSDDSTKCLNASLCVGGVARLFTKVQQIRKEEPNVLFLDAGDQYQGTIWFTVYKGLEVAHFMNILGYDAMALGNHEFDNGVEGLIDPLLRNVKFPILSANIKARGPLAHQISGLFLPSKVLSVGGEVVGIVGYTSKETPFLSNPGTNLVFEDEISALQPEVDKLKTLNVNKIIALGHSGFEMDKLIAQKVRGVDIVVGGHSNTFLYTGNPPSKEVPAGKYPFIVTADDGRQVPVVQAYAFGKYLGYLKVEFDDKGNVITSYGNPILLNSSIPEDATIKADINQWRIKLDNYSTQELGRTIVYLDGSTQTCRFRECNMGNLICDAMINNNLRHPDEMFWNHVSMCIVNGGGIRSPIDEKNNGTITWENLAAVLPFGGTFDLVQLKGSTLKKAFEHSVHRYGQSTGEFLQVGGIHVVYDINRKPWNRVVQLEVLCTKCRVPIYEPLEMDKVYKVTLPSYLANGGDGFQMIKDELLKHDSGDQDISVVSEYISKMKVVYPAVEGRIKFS
Protocol: as §1

[10] = target: T5, cynomolgus CD73 on cells; test: flow cytometry, CHO cells expressing cynomolgus CD73 (panel CHO-cyCD73), MFI vs antibody concentration
Protocol: as §1

[11] = target: T1, human CD73 on cells; test: flow cytometry, CHO cells expressing human CD73 (panel CHO-huCD73), MFI vs antibody concentration
Protocol: as §1

[12] = target: T2, recombinant human CD73 protein fused …; test: SPR; antibody on Protein A chip, CD73-His as analyte; remark: listed apart in the source
Protocol: as §3

[13] = target: T4, recombinant cynomolgus CD73 protein …; test: as above; remark: listed apart in the source
Protocol: as §3

[14] = target: T1, human CD73 on cells; test: cell-based or functional assay; remark: listed apart in the source
[15] = target: T5, cynomolgus CD73 on cells; test: flow cytometry on CHO cells expressing cynomolgus CD73; area under MFI curve
Protocol: as §1, §2

B1: BA015 (antibody, human IgG1, kappa, N297A)
heavy: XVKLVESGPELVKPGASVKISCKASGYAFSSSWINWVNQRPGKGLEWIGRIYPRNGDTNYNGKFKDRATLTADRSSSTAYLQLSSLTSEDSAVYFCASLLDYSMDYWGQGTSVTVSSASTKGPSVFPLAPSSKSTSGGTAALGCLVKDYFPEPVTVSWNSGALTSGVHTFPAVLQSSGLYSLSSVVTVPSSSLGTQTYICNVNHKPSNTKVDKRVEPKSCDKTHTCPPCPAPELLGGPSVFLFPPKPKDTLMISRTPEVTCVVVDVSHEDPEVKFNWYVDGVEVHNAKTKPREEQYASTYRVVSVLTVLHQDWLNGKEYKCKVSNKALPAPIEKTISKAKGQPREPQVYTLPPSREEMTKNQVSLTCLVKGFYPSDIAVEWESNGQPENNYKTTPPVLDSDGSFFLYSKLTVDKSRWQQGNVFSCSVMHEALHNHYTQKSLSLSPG
light: DIQMTQSTSSLSASLGDRVTISCRASQDISNYLNWYQQKPDGTVKLLIYYTSRLHSGVPSRFSGSGSGTDYSLTISNLEQEDIATYFCQQGNTLPLTFGAGTKLELKRTVAAPSVFIFPPSDEQLKSGTASVVCLLNNFYPREAKVQWKVDNALQSGNSQESVTEQDSKDSTYSLSSTLTLSKADYEKHKVYACEVTHQGLSSPVTKSFNRGEC
modifications: X at position 1 is E or pyroglutamate
notes: chimeric: BA012 murine variable regions, human IgG1 N297A and human Igκ constant regions
B1 was tested, and the “AUC, CD73 enzymatic activity on Jurkat cells expressing human CD73 (FIG. 2A)” value [1] was 239, the “AUC, enzymatic activity of immobilized recombinant human CD73 (FIGS. 7B-7P)” value [2] was 91.2 and the AUC [3] was 113000. The Kd [4] was 10 nM, the koff [4] was 0.0006 s⁻¹ and the kon [4] was 61000 M⁻¹ s⁻¹. For the same binder, the Kd [5] was 0.015 nM, the koff [5] was 0.00041 s⁻¹ and the kon [5] was 2.8e+07 M⁻¹ s⁻¹. For the same binder, the Kd [6] was 0.3 nM, the koff [6] was 8.7e-05 s⁻¹ and the kon [6] was 310000 M⁻¹ s⁻¹. The “EC50 (read off the curve)” value [7] was ~0.1 µg/mL, the “EC50 (read off the curve)” value [8] was ~0.2 µg/mL and the “EC50 (read off the curve)” value [9] was ~0.4 µg/mL. For the same binder, the “EC50 (read off the curve)” value [10] was ~0.5 µg/mL, the “EC50 (read off the curve)” value [11] was ~0.2 µg/mL and the Kd [12] was 0.088 nM. For the same binder, the koff [12] was 0.0002 s⁻¹, the kon [12] was 2.27e+06 M⁻¹ s⁻¹ and the Kd [13] was 0.07 nM. For the same binder, the koff [13] was 8.3e-05 s⁻¹, the kon [13] was 1.14e+06 M⁻¹ s⁻¹ and the “AUC, CD73 enzymatic activity on Jurkat cells expressing human CD73 (FIGS. 6B-6P)” value [14] was 328. The AUC [15] was 2440.

— patent US20190352418A1 (AGENUS, published 2019)
